From publication PMC4994030 (Scientific Reports, 2016)

molecular target: T1, HER2-ECD (human epidermal growth factor receptor 2, extracellular domain) (Homo sapiens, UniProt P04626); assay: ELISA; conditions: one partner purified
T1 construct: also called HER-ECD

Binder	binding result
GH2-4 scFv (scFv, V domains shown, source: E. coli ER2738, secreted, in filtered culture supernatant) VH: EVQLVESGGGLVQPGGSLRLSCAASGFTINSGSIHWVRQAPGKGLEWVAFIGPFGGYTSYADSVKGRFTISADTSKNTAYLQMNSLRAEDTAVYYCARFGWNDYDFMDYWGQGTLVTVSS VL: DIQMTQSPSSLSASVGDRVTITCRASQDVFGGVAWYQQKPGKAPKLLIYSASFLYSGVPSRFSGSGSGTDFTLTISSLQPEDFATYYCQQYFDWPITFGQGTKVEIK	binds
GH2-12 scFv (scFv, V domains shown, source: E. coli ER2738, secreted, in filtered culture supernatant) VH: EVQLVESGGGLVQPGGSLRLSCAASGFTINDWGIHWVRQAPGKGLEWVAGIWPYWGYTSYADSVKGRFTISADTSKNTAYLQMNSLRAEDTAVYYCARYHVYFWWMDYWGQGTLVTVSS VL: DIQMTQSPSSLSASVGDRVTITCRASQDVSNNVAWYQQKPGKAPKLLIYGPSFLYSGVPSRFSGSGSGTDFTLTISSLQPEDFATYYCQQYYNYPITFGQGTKVEIK	binds
GH2-8 scFv (scFv, V domains shown, source: E. coli ER2738, secreted, in filtered culture supernatant) VH: GVQLVESGGGLVQPGGSLRLSCAASGFTIGSSGIHWVRQAPGKGLEWVAGIWPYWGSTYYADSVKGRFTISADTSKNTAYLQMNSLRAEDTAVYYCARFGVGYHYYMDYWGQGTLVTVSS VL: DIQMTQSPSSLSASVGDRVTITCRASQDVGWWVAWYQQKPGKAPKLLISGATGLYSGVPSRFSGSGSGTDFTLTISSLQPEDFATYYCQQSWDSPITFGQGTKVEIK	binds
GH2-55 scFv (scFv, V domains shown, source: E. coli ER2738, secreted, in filtered culture supernatant) VH: EVQLVESGGGLVQPGGSLRLSCAASGFTIDGFSIHWVRQAPGKGLEWVAGIGPYGGYTSYADSVKGRFTISADTSKNTAYLQMNSLRAEDTAVYYCARFDIWHNFGMDYWGQGTLVTVSS VL: DIQMTQSPSSLSASVGDRVTITCRASQDVDGNVAWYQQKPGKAPKLLISSAGSLYSGVPSRFSGSGSGTDFTLTISSLQPEDFATYYCQQSWSWPLTFGQGTKVEIK	binds
GH2-42 scFv (scFv, V domains shown, also called scFv(GH2-42); source: E. coli ER2738, secreted, in filtered culture supernatant) VH: EVQLVESGGGLVQPGGSLRLSCAASGFTISNWGIHWVRQAPGKGLEWVAGIGPYGGYTSYADSVKGRFTISADTSKNTAYLQMNSLRAEDTAVYYCARFGFYFDGIMDYWGQGTLVTVSS VL: DIQMTQSPSSLSASVGDRVTITCRASQDVSSGVAWYQQKPGKAPKLLISGPTGLYSGVPSRFSGSGSGTDFTLTISSLQPEDFATYYCQQYYDWPLTFGQGTKVKRG	binds
GH2-101 scFv (scFv, V domains shown, source: E. coli ER2738, secreted, in filtered culture supernatant) VH: EVQLVESGGGLVQPGGSLRLSCAASGFTINSYGIHWVRQAPGKGLEWVASIGPYWGYTSYADSVKGRFTISADTSKNTAYLQMNSLRAEDTAVYYCARFYIWFDGLMDYWGQGTLVTVSS VL: DIQMAQSPSSLSASVGDRVTITCRASQDVSNGVAWYQQKPGKAPKLLIYGTTSLYSGVPSRFSGSGSGTDFTLTISSLQPEDFATYYCQQYYSWPLTFGQGTKVEIK	binds
GH2-40 scFv (scFv, V domains shown, source: E. coli ER2738, secreted, in filtered culture supernatant) VH: EVQLVESGGGLVQPGGSLRLSCAASGFTINSWGIHWVRQAPGKGLEWVAWIGPYWGFTSYADSVKGRFTISADTSKNTAYLQMNSLRAEDTAVYYCARFDGHFDGVMDYWGQGTLVTVSS VL: DIQMTQSPSSLSASVGDRVTITCRASQDVNNGVAWYQQKPGKAPKLLISGTPWLYSGVPSRFSGSGSGTDFTLTISSLQPEDFATYYCQQYFDWPLTFGQGTKVEIK	binds
GH2-31 scFv (scFv, V domains shown, source: E. coli ER2738, secreted, in filtered culture supernatant) VH: EVQLVESGGGLVQPGGSLRLSCAASGFTINNFGIHWVRQAPGKGLEWVASIGPFWGYTSYADSVKGRFTISADTSKNTAYLQMNSLRAEDTAVYYCARFGNDYDGVMDYWGQGTLVTVSS VL: DIQMTQSPSSLSASVGDRVTITCRASQDVSWGVAWYQQKPGKAPKLLIYSPPWLYSGVPSRFSGSGSGTDFTLTISSLQPEDFATYYCQQYYNWPITFGQGTKVEIK	binds
GH2-102 scFv (scFv, V domains shown, source: E. coli ER2738, secreted, in filtered culture supernatant) VH: EVQLVESGGGLVQPGGSLRLSCAASGFTINGGGIHWVRQAPGKGLEWVASIGPYGGYTSYADSVKGRFTISADTSKNTAYLQMNSLRAGDTAVYYCARFGHHYDGHMDYWGQGTLVTVSS VL: DIQMTQSPSSLSASVGDRVTITCRASQDVGSNVAWYQQKPGKAPKLLIYGAPYLYSGVPSRFSGSGSGTDFTLTISSLQPEDFATYYCQQYYNWPLTFGQGTKVEIK	binds
GH2-11 scFv (scFv, V domains shown, source: E. coli ER2738, secreted, in filtered culture supernatant) VH: EVQLVESGGGLVQPGGSLRLSCAASGFTINDWGIHWVRQAPGKGLEWVAGIGPYGGYTSYADSVRGRFTISADTSKNTAYLQMNSLRAEDTAVYYCARFVNWDFYGMDYWGQGTLVTVSS VL: DIQMTQSPSSLSASVGDRVTITCRASQDVGDGVAWYQQKPGKAPKLLIYSAGWLYSGVPSRFSGSGSGTDFTLTISSLQPEDFATYYCQQYYSYPITFGQGTKVEIK	binds
GH2-26 scFv (scFv, V domains shown, source: E. coli ER2738, secreted, in filtered culture supernatant) VH: EVQLVESGGGLVQPGGSLRLSCAASGFTISDYGIHWVRQAPGKGLEWVAFIGPYWGYTYYADSVKGRFTISADTSKNTAYLQMNSLRAEDTAVYYCARFYFFGDGLMDYWGQGTLVTVSS VL: DIQMTQSPSSLSASVGDRVTITCRASQDVSSGVAWYQQKPGKAPKLLIYGTSSLYSGVPSRFSGSGSGTDFTLTISSLQPEDFATYYCQQYFNWPITFGQGTKVEIK	binds
GH2-62 scFv (scFv, V domains shown, source: E. coli ER2738, secreted, in filtered culture supernatant) VH: EVQLVESGGGLVQPGGSLRLSCAASGFTINNWGIHWVRQAPGKGLEWVAGIWPFGGYTYYADSVKGRFTISADTSKNTAYLQMNSLRAEDTAVYYCARFDYLNNGGMDYWGQGTLVTVSS VL: DIQMTQSPSSLSASVGDRVTITCRASQDVGGYVAWYQQKPGKAPKLLIFGASGLYSGVPSRFSGSGSGTDFTLTISSLQPEDFATYYCQQFYSSPLTFGQGTKVEIK	binds
GH2-24 scFv (scFv, V domains shown, source: E. coli ER2738, secreted, in filtered culture supernatant) VH: EVQLVESGGGLVQPGGSLRLSCAASGFTIDNGSIHWVRQAPGKGLEWVAFIGPSGGYTFYADSVKGRFTISADTSKNTAYLQMNSLRAEDTAVYYCARFGWHNVDNMDYWGQGTLVTVSS VL: DIQMTQSPSSLSASVGDRVTITCRASQDVGWGVAWYQQKPGKAPKLLISSTRSLYSGVPSRFSGSGSGTDFTLTISSLQPEDFATYYCQQYYNWPLTFGQGTKVEIK	binds
GH2-75 scFv (scFv, V domains shown, also called scFv(GH2-75); source: E. coli ER2738, secreted, in filtered culture supernatant) VH: EVQLVESGGGLVQPGGSLRLSCAASGSTIGNSGIHWVRQAPGKGLEWVAYIGPYGGYTSYADSVKGRFTISADTSKNTAYLQMNSLRAEDTAVYYCARFDDYHWDGMDYWGQGTLVTVSS VL: DIQMTQSPSSLSASVGDRVIITCRASQDVSGYVAWYQQKPGKAPKLLIYSSGVPSRFSGSGSGTDFTLTISSLQPEDFATYYCQQYYNWPVTFGQGTKVEIK	binds
GH2-92 scFv (scFv, V domains shown, source: E. coli ER2738, secreted, in filtered culture supernatant) VH: EVQLVESGGGLVQPGGSLRLSCAASGFTIGNWGIHWVRQAPGKGLEWVASIGPFWGYTFYADSVKGRFTISADTSKNTAYLQMNSLRAEDTAVYYCARFGNHYDGIMDYWGQGTLVTVSS VL: DIQMTQSPSSLSASVGDRVTITCRASQDVNDGVAWYQQKPGKAPKLLIFGSPYLFSGVPSRFSGSGSGTDFTLTISSLQPEDFATYYCQQYFSWPITFGQGTQVGIK	binds
GH2-72 scFv (scFv, V domains shown, source: E. coli ER2738, secreted, in filtered culture supernatant) VH: EVQLVESGGGLVQPGGSLRLSCAASGFTISNGGIHWVRQAPGKGLEWVAYIWPSGGYTFYADSVKGRFTISADTSKNTAYLQMNSLRAEDTAVYYCARFFNNDWIGMDYWGQGTLVTVSS VL: DIQMTQSPSSLSASVGDRVTITCRASQDVGYFVAWYQQKPGKAPKLLISGTTWLYSGVPSRFSGSGSGTDFTLTISSLQPEDFATYYCQQYSNWPLTFGQGTKVEIK	binds
GH2-38 scFv (scFv, V domains shown, source: E. coli ER2738, secreted, in filtered culture supernatant) VH: EVQLVESGGGLVQPGGSLRLSCAASGFTISDGGIHWVRQAPGKGLEWVAGIGPYGGYTSYADSVKGRFTISADTSKNTAYLQMNSLRAEDTAVYYCARFGDNFIGVMDYWGQGTLVTVSS VL: DIQMTQSPSSLSASVGDRVTITCRASQDVFGGVAWYQQKPGKAPKLLIYGPSYLYSGVPSRFSGSGSGTDFTLTISSLQPEDFATYYCQQYSSWPITFGQGTKVEIK	binds
GH2-107 scFv (scFv, V domains shown, source: E. coli ER2738, secreted, in filtered culture supernatant) VH: EVQLVESGGGLVQPGGSLRLSCAASGFTISNFGIHWVRQAPGKGLEWVAYIGPYGGYTSYADSVKGRFTISADTSKNTAYLQMNSLRAEDAAVYYCARFHIHNLWGMDYWGQGTLVTVSS VL: DIQMTQSPSSLSASVGDRVTITCRASQDVSDGVAWYQQKPGKAPKLLISGAGYLYSGVPSRFSGSGSGTDFTLTISSLQPEDFATYYCQQFYSWPITFGQGTKVEIK	binds
GH2-103 scFv (scFv, V domains shown, source: E. coli ER2738, secreted, in filtered culture supernatant) VH: EVQLVESGGGLVQPGGSLRLSCAASGFTIDEYGIHWVRQAPGKGLEWVAFIGPYWGYTSYADSVKGRFTISADTSKNTAYLQMNSLRAEDTAVYYCARFGHLHDGLMDYWGQGTLVTVSS VL: DIQMTQSPSSLSASVGDRVTITCRASQDVFSGVAWYQQKPGKAPKLLISGTPFLYSGVPSRFSGSGSGTDFTLTISSLQPEDFATYYCQQYYNWPITFGQGTKVEIK	binds
GH2-61 scFv (scFv, V domains shown, also called scFv(GH2-61); source: E. coli ER2738, secreted, in filtered culture supernatant) VH: EVQLVESGGGLVQPGGSLRLSCAASGFTINNWGIHWVRQAPGKGLEWVAGIWPYGGYTYYADSVKGRFTISADTSKNTAYLQMNSLRAEDTAVYYCARFYNHHGGVMDYWGQGTLVTVSS VL: DIQMTQSPSSLSASVGDRVTITCRASQDVGSNVAWYQQKPGKAPKLLISWSTSLYSGVPSRFSGSGSGTDFTLTISSLQPEDFATYYCQQYGGWPITFGQGTKVEIK	binds
